From paper PMC7840181

Biological target: CLAG3-tv2 (CLAG3h with C-terminal His10-FLAG-thrombin-TEV-HA-twinstrept-BC2 multi-tag) (Plasmodium falciparum)
Experiment: native MS; endogenous RhopH complex purified via CLAG3-tv2 (FLAG, then Ni-NTA), exchanged into 200 mM ammonium acetate pH 7.5, 0.01% Tween-20; Exactive Plus EMR

**Q.** With “RhopH2 (from UniProt C0H571 20-1378) (natural protein)” as the substance, how does the stoichiometry N read?
**A.** 1

**Q.** For “RhopH3 (from UniProt Q8I395 25-897) (natural protein)”, which stoichiometry N is on record?
**A.** 1
